Data published in article PMC5492076, “β-Cyanoalanine Synthases and Their Possible Role in Pierid Host Plant Adaptation” (Insects, 2017).

Experiments:
Assay in all cases: colorimetric sulfide formation, Michaelis-Menten fit
Details in all cases: 6 mM KCN, 20 µM pyridoxal-5'-phosphate, Tris-HCl pH 8.5, 31 °C, 10 min
[1] = substrate: N[C@@H](CS)C(=O)O; type: biochemical, Anthocharis cardamines
Source text: colorimetric sulfide formation, Michaelis-Menten fit on AcaBSAS2

[2] = substrate: N[C@@H](CS)C(=O)O; type: biochemical, Aporia crataegi
Source text: colorimetric sulfide formation, Michaelis-Menten fit on AcrBSAS3

[3] = substrate: N[C@@H](CS)C(=O)O; type: biochemical, Anthocharis cardamines; remark: listed apart in the source
Source text: colorimetric sulfide formation, Michaelis-Menten fit on AcaBSAS3

[4] = substrate: N[C@@H](CS)C(=O)O; type: biochemical, Plutella xylostella
Source text: colorimetric sulfide formation, Michaelis-Menten fit on PxBSAS2

[5] = substrate: N[C@@H](CS)C(=O)O; type: biochemical, Aporia crataegi; remark: listed apart in the source
Source text: colorimetric sulfide formation, Michaelis-Menten fit on AcrBSAS2

[6] = substrate: N[C@@H](CS)C(=O)O; type: biochemical, Anthocharis cardamines; remark: listed apart in the source
Source text: colorimetric sulfide formation, Michaelis-Menten fit on AcaBSAS1

[7] = substrate: N[C@@H](CS)C(=O)O; type: biochemical, Aporia crataegi; remark: listed apart in the source
Source text: colorimetric sulfide formation, Michaelis-Menten fit on AcrBSAS1

B1: AcaBSAS2 (Anthocharis cardamines) (protein)
chain: MTKENGIPNEIKSSALDLIGETPLLALDRLHPGPGRILVKCEFNNPGASIKCRSAMHMIQEARAKGELKPGQPVLEVTSGNQGVGLAIVCAIYGHPLTATMSKGNSVQRAVHMEALGAKCIRVPQVEGTYGNVTINDVKAAEEEGLKIAKETGAYYVNQFNNDDNANSHYLTTGPEIWRQSGHHVDAFIATVGTAGTFAGTSRYLKEKNPDIQCYVVEPEGSQPIRGCEITKPLHLLQGSGYGCIPNLFKFETMDGTLSVTDEEAVRYKNLVGEKEGLYVGYTSGANVAAAVKLLKSGKLPEDAWVVTPLNDSGLKYTPVPDSLT
notes: N-terminal Strep-tag, E. coli BL21(DE3) pLysS; Strep-Tactin purified
Question: For B1, which Km [1] is on record?
Answer: The Km was 0.44 (±0.01) mM.

Question: And the Vmax [1]?
Answer: Its Vmax is 1.76 µmol/min/mg.

B2: AcrBSAS3 (Aporia crataegi) (protein)
chain: MTNAISVSNEIKASALELIGNTPLLALDRLHPGPGRILVKCEFMNPGGSLKCRSSLHMIQKARERGELKPGGDVVEVTSGNQGCGLGVVCSVLGHPLTVTMSKGNSIQRALHMEALGAKCIRYPLVKGTYGNVTFADVEPALEGAMKMSEETGAFFVKQMANPDNIEAHYETTGPEIWRQSGHRVDAFVTAVGTSGTFTGVSKYLKEQNPEIQCFVVEPEGSQPLKGCPITKPLHMLQGASYGVVPDLFNPDLMEDSISVTDEESVHYKDLLGTKEGLFVGYTSGANVAAAVKLLNSGKLPKDAWVVTILSDTGLKYTPVPDNLIE
notes: as for B1
Question: Which Km [2] does the source give for B2 here?
Answer: Its Km is 1.31 (±0.08) mM.

Question: What about the Vmax [2] of the same protein?
Answer: Its Vmax is 1.12 µmol/min/mg.

B3: AcaBSAS3 (Anthocharis cardamines) (protein)
chain: MSDSNGIPNEIKASALDLIGNTPLVALDRLHPGPGRILAKCEFMNPGGSIKCRSSLHMIQKARERGELKPGGSVVEVTSGNQGCGLAVVCAVLGHDLTVTMSKGNSIQRVIHMEALGAKCIRYPLVQGTYGNVTFADVEEALEAATNMSEESGAFFVKQFCNLENEEAHYVTTGPEIWRQTGHRVDAFVTAVGTSGTFSGVSTFLKEQNPDVKCFVVEPEGSQPLKGCPITKPLHLLQGASYGIIPDLFKPDLMEDSISVTDKEAVHYKDLIGTKEGLFVGYTSGANVAAAVKLLNSGKLPKDAWVVTTLCDTGLKYTPVPESLIE
notes: as for B1
Question: Which results are given for B3?
Answer: Km [3]: 0.96 (±0.04) mM; Vmax [3]: 1.41 µmol/min/mg

B4: PxBSAS2 (Plutella xylostella) (protein)
chain: MSTIDGVIDGVHNEVKASALELIGNTPLVALDRLHPGPGRLLVKCEFMNPGASLKDRSSLHMIQDARAEGRLAPGAPVVEITSGNQGCGLAVVCAVLGHPLTLTMSAGNSVQRALHMEALGARCVRVPQVEGRYGSVTFADVEVCEKEGHKIVEETGAFLVNQFHNPSNSLSHYKMMGPEIWRQTGGRVDGFVATMGTGGVFTGTSRFLKEQNKDVKTYVVEPAGAEVIKGDAITKPLHLLQGSGYGYVPSLFDRSLLDGTLAVTDEETLEYRRLIGEKEGLFVGYTSAANVAAAARLLRSGQLPPDAWVVTILCDTGLKYC
notes: as for B1
Question: With B4 as the protein, how does the Km [4] read?
Answer: The Km was 0.52 (±0.04) mM.

Question: And the Vmax [4]?
Answer: Its Vmax is 3.72 µmol/min/mg.

B5: AcrBSAS2 (Aporia crataegi) (protein)
chain: MAKVNGIKNEIKTSALELIGETPLLALDRLHPGPGRILVKCEFMNPGASIKCRSSLHMIQEARAKGLLKPGQPVLEVTSGNQGCGLAIVCAIYGHPLTVTMSKGNSLQRAIHMEALGAKCVRVPQVEGTYGNVTVNDVNAAEEEGLKIVKETGAYYVNQFNNEDNANSHYLTTGPEIWRQSGHNVDAFVATVGTAGTFAGTSRYLKEKNPNIKCFVVEPEGSQPIKGCPITKPLHLLQGSGYGCIPNLFNFDTMDGTLSVTDEEAVEYKNLIGEKEGLFVGFTSGANVAAAVKLLKSGLIPENSCLVTILNDTGLKYTPVAESLI
notes: as for B1
Question: With B5 as the protein, how does the Km [5] read?
Answer: Its Km is 0.58 (±0.04) mM.

Question: What about the Vmax [5] of the same protein?
Answer: The Vmax was 2.09 µmol/min/mg.

B6: AcaBSAS1 (Anthocharis cardamines) (protein)
chain: MGQACEKQTDIRASAIELIGNTPLVALDRLHPGPGRILAKCEFMNPGGSIKCRASLHMIQKARLRGTLKPGDPVVEATSGNQGCGLAVACAVLGHPLTLTMSKGNTVQRAIHMEALGAKCIRVPQVEGTYGNVTNADLMAAKDEAISFHEKTGAFFVKQFVNEDNVEAHYTTTGPEIWYQTGNRVDAFVTAVGTSGTFMGVSKYLKKQNPKIRCYVVEPEGCEPIKGKPITKASNTLQGSSYGVIPDLFKFEYMNETITVTDEEAEEYRDLIGSKEGLYVGYTSGANVCAAVKLLKSGKLPKNAWVVTILFDTGLKYTPVPESLM
notes: as for B1
Question: How did the Km [6] turn out when B6 was run?
Answer: The Km was 0.41 (±0.01) mM.

Question: And the Vmax [6]?
Answer: Its Vmax is 23.8 µmol/min/mg.

B7: AcrBSAS1 (Aporia crataegi) (protein)
chain: MGQTCEKQTDIRSSALELIGNTPLVALDRLYPGPGRLLAKCESMNPGGSIKDRASYHMIKKARLRGELKPGDPVIEATSGNQGCGLAVSCAVLGHPLTLTMSKGNTVQRAIHMEALGATCVRVPQVEGTYGHVTNADLMVVKKEAIVLQQKTGAFFVNQFLNEDNVEAHYISTGPEIWHQTAGRVNAFVTAVGTSGTFMGVSRFLKKQNPKIQCYVVEPEGCEPIKGKPIIKASNTLQGSSYGLVPDLFKYEVMSETITVTDEEAQEYMHLIGKKEGLYVGYTSGANVCAAVKLLKSGKLSKKAWVVTILFDTGLKYTPVPSLM
notes: as for B1
Question: For B7, which Km [7] is on record?
Answer: Its Km is 0.26 (±0.00) mM.

Question: And the Vmax [7]?
Answer: Its Vmax is 14 µmol/min/mg.
